Results from the supplement of paper PMC9732359.
± gives the uncertainty stated by the source.

Assay: protein stability index of a GFP-peptide fusion (yeast GPS) (PSI 1-4); higher = more stable; sorted into four equal gates, so the index is relative within each strain
How it was run: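 Each library plasmid carries Cherry plus GFP with a tiled 17-residue yeast protein peptide fused downstream, and the pooled library was carried in yeast. Mid-log cultures in leucine-free medium were sorted into four equal gates by GFP/Cherry ratio. Reads from Illumina sequencing of PCR-amplified plasmids from each gate were assigned to strains by barcodes. Per peptide, the protein stability index was computed as the summed products of gate read frequency and gate number.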

| Sequence | protein stability index (doa10∆) | protein stability index (pdr5∆) | protein stability index (san1∆) | protein stability index (ubr1∆) |
| --- | --- | --- | --- | --- |
| SLVFNRKLAVERAGHLL [PRE5] | 2.08 ± 0.2 | 1.5 ± 0.18 | 1.43 ± 0.19 | 1.71 ± 0.21 |
| IAAGTYGKVYKAKRQIN [SSN3] | 1.68 ± 0.061 | 2.03 ± 0.043 | 2.24 ± 0.068 | 2.29 ± 0.048 |
| ELKEITSLPDWCQEAFP [BRR2] | 2.86 ± 0.069 | 2.73 ± 0.076 | 3.11 ± 0.064 | 3.08 ± 0.046 |
| SAAGMTAAIDSVVSQIE [FAS1] | 3.49 ± 0.23 | 3.15 ± 0.11 | 3.04 ± 0.24 | 2.81 ± 0.11 |
| EFNSIDRVIFRVPIRSE [PRP8] | 3.32 ± 0.089 | 3.33 ± 0.097 | 3.21 ± 0.13 | 3.11 ± 0.046 |
| TPGEVASKAIVQMAKIL [MCD1] | 3.26 ± 0.14 | 3 ± 0.11 | – | – |
| SGNGSNPNTNTNSNNTP [PGD1] | 2.78 ± 0.062 | 3 ± 0.056 | 2.95 ± 0.038 | 2.87 ± 0.041 |
| CINKWIKTRDACPLDNQ [HRT1] | 3.16 ± 0.093 | 3.03 ± 0.079 | 2.72 ± 0.078 | 3.17 ± 0.05 |
| AGNKVGQSEASLLNLLN [RPP0] | 3.03 ± 0.12 | 2.25 ± 0.095 | 2.67 ± 0.1 | 2.95 ± 0.12 |
| EFSEHTFVERLPNETIN [DIS3] | 3.34 ± 0.16 | 2.47 ± 0.18 | 3.36 ± 0.11 | 3.23 ± 0.12 |
| QLGPQTPAFNTAILQRQ [ECM29] | 1.39 ± 0.21 | 1.49 ± 0.17 | 1.41 ± 0.17 | 1.67 ± 0.21 |
| TNGGLFGSGTQNNNTLG [YGR119C/NUP57] | 3.25 ± 0.11 | 2.91 ± 0.091 | 3.02 ± 0.069 | 3.08 ± 0.069 |
| IFCVGSGQTFAYGVLDS [PRE2] | 2.49 ± 0.095 | 2.04 ± 0.11 | 2.249 ± 0.019 | 2.33 ± 0.073 |
| FKGLETPLKARQREMAE [YLR018C/POM34] | 3.27 ± 0.1 | 3.29 ± 0.1 | 2.91 ± 0.088 | 3.41 ± 0.069 |
| KTTITRVEPETFEIPQA [SWI3] | 2.38 ± 0.066 | 2.81 ± 0.081 | 2.84 ± 0.072 | 2.38 ± 0.054 |
| YSRISKLKQLLDESSEQ [YIL149C/MLP2] | 2.25 ± 0.077 | 2.67 ± 0.088 | 1.73 ± 0.14 | 2.4 ± 0.053 |
| ARLPPRATNCRKRKCGH [RPL40A] | 2.98 ± 0.094 | 3.3 ± 0.15 | 3.2 ± 0.1 | 3.14 ± 0.11 |
| VLVKWTRTIKQNNFHVL [RGR1] | – | 1.3 ± 0.27 | – | – |
| NTTTRVIPQVEVGNRKH [SNF5] | 2.21 ± 0.2 | 2.46 ± 0.095 | 2.35 ± 0.17 | 2.62 ± 0.094 |
| TPSTNEPYARVSGDLNP [FAS1] | 2.96 ± 0.074 | 2.6 ± 0.077 | 2.46 ± 0.15 | 2.39 ± 0.073 |
| GLSPKKVGEDIAKATKE [RPL12A] | 3.03 ± 0.16 | 3.22 ± 0.14 | 3.13 ± 0.18 | 2.77 ± 0.24 |

| Sequence | protein stability index (doa10∆) | protein stability index (pdr5∆) | protein stability index (san1∆) | protein stability index (ubr1∆) |
| --- | --- | --- | --- | --- |
| EKDLEHWLQLAKGVYRP [POP1] | 2.64 ± 0.072 | 3 ± 0.067 | 3.15 ± 0.041 | 3.1 ± 0.064 |
| PGVLPVGIDTHTATDIY [SNF2] | 2.96 ± 0.066 | 3.04 ± 0.064 | 2.77 ± 0.045 | 2.69 ± 0.04 |
| VKWQYDPNNPVDFDGLD [SNF12] | 2.74 ± 0.062 | 3.02 ± 0.053 | 2.25 ± 0.07 | 2.87 ± 0.03 |
| LIEKLQGFSKDTFELIK [YDL116W/NUP84] | 3.21 ± 0.12 | 3.22 ± 0.093 | 3.29 ± 0.064 | 3.08 ± 0.07 |
| VDSISLHKIFYKVLKNN [YCG1] | 1.99 ± 0.047 | 2.32 ± 0.039 | 2.71 ± 0.037 | 2.3 ± 0.042 |
| ITLENITRLCQTLGLES [MED1] | 2.07 ± 0.04 | 2.28 ± 0.044 | 1.91 ± 0.055 | 1.89 ± 0.037 |
| KVTEKVLTQLTALALKY [CSI1] | 2.24 ± 0.044 | 2 ± 0.029 | 2 ± 0.039 | 2.13 ± 0.044 |
| ERPPLLPILPIQRLRLL [YOR098C/NUP1] | 1.34 ± 0.1 | 2.36 ± 0.12 | 1.95 ± 0.18 | 1.9 ± 0.11 |
| VGPSEQNFAEEDDSSNS [REC8] | 2.56 ± 0.15 | 2.62 ± 0.11 | – | – |
| KTEPVGTGLQSYLEERE [RPC53] | 3.4 ± 0.25 | 3.24 ± 0.13 | 3.21 ± 0.12 | 3.2 ± 0.11 |
| SGKSNILDAICFVLGIA [SMC2] | 1.85 ± 0.07 | 1.86 ± 0.087 | 2.25 ± 0.11 | 1.82 ± 0.066 |
| RHIKSKHEDLSLEQRQE [RPN4] | 2.97 ± 0.069 | 3.05 ± 0.086 | 2.79 ± 0.096 | 3.03 ± 0.066 |
| NVKNDVSFNDSQSMVTN [YIL149C/MLP2] | 3.1 ± 0.054 | 3.37 ± 0.081 | 3.07 ± 0.067 | 3.3 ± 0.04 |
| ATAIGKGSVAAKTFLEK [PRE8] | 2.13 ± 0.2 | 1.28 ± 0.17 | – | – |
| GNQQQQLQQQPQMQCAL [YGL172W/NUP49] | 2.79 ± 0.17 | 2.66 ± 0.19 | 2.87 ± 0.1 | – |
| TEVIIRATRTQDVLGEN [RPS3] | 3.42 ± 0.26 | 2.92 ± 0.12 | 3.14 ± 0.13 | 3.35 ± 0.079 |
| QQQQQQQQGQIPQSQQV [SNF5] | 2.231 ± 0.016 | 2.63 ± 0.018 | 2.257 ± 0.02 | 2.511 ± 0.02 |
| DDVKNILNAKYTKETYQ [RPN6] | 3.26 ± 0.076 | 2.99 ± 0.066 | 3.08 ± 0.052 | 3.12 ± 0.064 |
| LFSLEKPNLNYFKSILL [SWI1] | 1.38 ± 0.056 | 1.59 ± 0.055 | 1.62 ± 0.082 | 1.86 ± 0.051 |
| GCDENDSTVNKSITLKG [YDL088C/ASM4] | 3.1 ± 0.091 | 3.27 ± 0.068 | 3.32 ± 0.06 | 3.11 ± 0.066 |
